Measured values from the DeepSol protein solubility set.

Assay: soluble on expression in E. coli; label from the status in PepcDB or PDB records

| Sequence | soluble on expression in E. coli |
| --- | --- |
| MGSDKIHHHHHHMKVVKFGGSSLATGNNVNKALNIIKNDSSRQVIVVSAPGKRTDDDIKVTDLLITYAYTSLRSNNYDDTVEKIFRRYELIAQYFDLPESDLTKIKRLLLTLPTYDYPNADYRMATFKAHGERLNAILIAKILNHQGIKTRYLEPKDVGLIVTGTPNNAEVNPETYVNLKRINLKNNEKIIFPGFYGITPSGHIATFSRGGSDITGAILARGFDAELYENFTDVDAIFSANPNIVTNPAPIKKMTYQEMRELSYAGFSVFHDEALIPAIQGEIPVNVKNTNDPEKPGTLIVPEDGFIPKHTITGIAGGKNFAALYLRKYMLNKGAGFTLKLMEIFDRHHVSYEHMPSGIDDLTIIFKKDALSDQLIDVICNEIQTSLNPDQMQWIDDYAITMVVGEGMKDKLTLCASILYPLGEKNISIQMINQGASQISIMIGTRRQDEEEVIKTIYQNFIENR | not soluble |
| MGSDKIHHHHHHMKWEEKRDMVKIATWYYHYGWTQAQIAKKIGISRSIISKTLQRAKDLGIVEIFIKDETYYTVDLEQKLEEKFGLEEAIVVATHDMSEEEALNFLAKEAAYTLSKRIAKVKTLGISWGKTIRKFANEFPFIPHKDLTIIPLIGGMGSSDIDLHSNQICYDLKKKMKCHSKYLYAPALVEDTEMKTDLSKNKYISEVLEEGKTVDMAIVGVSSPYNHSTMEEIGYINSEDIEELRYKDVVGDINSRFFTADGKEAKTEINTHVIGLSLEELKNIPTVVALANGLQKKEALVAALNAGLIDVIVITDRMAEYILQKND | not soluble |
| MGSDKIHHHHHHMKYYFAPLEGITGYIYRNAYEKFFGGIDKYFTPFIVPTSSKSLTSRELKDVLPENNKVTFLVPQILTNDANKFIFTTEKLMNLGYSEVNLNLGCPSGTVVSKGRGAGFLKKRQELDEFLEKIFSKSPAKISIKTRIGKDSPDEFYELIKIFNKYPLEELIIHPRIQTDFYNNKPNMKVFKDALELSKSTVCYNGDIFQSNDYIKLIEEFSNLGVVMLGRGIISNPNIIKKINSNNVLEKEVLKKFHDAIYEEYQDILSGEKNVLFKMKEIWFYMIHLFKDSDKFAKKIRKANRLRDYEAIISALFGEFDLI | not soluble |
| MGSDKIHHHHHHMLDQAERLRNMALKKNAGEEIKRPVIITVTSGKGGVGKSNFVVNLSITLQQMNKKVLIFDADVGMGNDDILLGCISKYSVFDVIYNNMKIEDAIVEGPFGVKLLPGGSGITKFKDITEDQINAFVKKLASIGNFDYIIMDTGAGVNRSVLGFISCCEELIILTTPEPTSLTDAYSLFKAVVHFKIKSYAKVVINRVVDNKEGLETYKKFQSVAKKFLKADTEFLGSISEDSRIVKAVRNQTPFVVENPNCYAAKDIQYIANKLMGTTTKDNGLGIEGLFKKLFKIFS | not soluble |
| MGSDKIHHHHHHMLEHKIDFMVTLEVKEANANGDPLNGNMPRTDAKGYGVMSDVSIKRKIRNRLQDMGKSIFVQANERIEDDFRSLEKRFSQHFTAKTPDKEIEEKANALWFDVRAFGQVFTYLKKSIGVRGPVSISMAKSLEPIVISSLQITRSTNGMEAKNNSGRSSDTMGTKHFVDYGVYVLKGSINAYFAEKTGFSQEDAEAIKEVLVSLFENDASSARPEGSMRVCEVFWFTHSSKLGNVSSARVFDLLEYHQSIEEKSTYDAYQIHLNQEKLAKYEAKGLTLEILEGL | not soluble |
| MGSDKIHHHHHHMLERRHIARDISYSHSAETRPGRIMIRLMENTTGRLRLIKRAKGYDMEVASGRSFWDVIVERYGLSLDVVGGSLDAIPRDKPVILIANHPYGILDGLMMGHILSRTRCDFRMLAHQVFRKAEDLNKVILPIDFAETKEAMKVNLQTRKDALDYLGQGGAIGIFPGGTVSTASKPFAHPMDPGWRGFTARMVAKSDAVVVPLYFDGHTSRLFQIASHLHYTLRMGLLIKEFKKRVDTPVKVVIGEPIGRDVLDPLAKDSKAMMDFLRKATYELSPTPLKSYDYGFEFEEKHRA | not soluble |
| MGSDKIHHHHHHMLESTKQFLKKYNINDRVLKLYETAMNDIQNQFKILDDIREFNQLKVLNAFQEERISEAHFTNSSGYGYGDIGRDSLDAVYARVFNTESALVRPHFVNGTHALGAALFGNLRPGNTMLSVCGEPYDTLHDVIGITENSNMGSLKEFGINYKQVDLKEDGKPNLEEIEKVLKEDESITLVHIQRSTGYGWRRALLIEDIKSIVDCVKNIRKDIICFVDNCYGEFMDTKEPTDVGADLIAGSLIKNIGGGIAPTGGYLAGTKDCIEKTSYRLTVPGIGGECGSTFGVVRSMYQGLFLAPHISMEALKGAILCSRIMELAGFEVMPKYDEKRSDIIQSIKFNDKDKLIEFCKGIQTGSPIDSFVSCEPWDMPGYTDQVIMAAGAFIQGSSIELSADAPIREPYIAYLQGGLTFDHAKIGILIALSRIVK | not soluble |
